Test [1] concerns the target cell-surface mucins (on HeLa cells). Kind of test: flow cytometry on cells (anti-His staining, HeLa). To be noted: 30 min at 4 °C in the presence of EDTA, n = 3 biologically independent replicates, read off a plot. (In flow cytometry, cells or beads pass a laser one at a time.)
For test [2] the target is unchanged. Kind of test: flow cytometry on cells; HeLa cells treated with His-tagged mucinases in cold FACS buffer (0.5% BSA in PBS) with 2 mM EDTA and 0.1% benzonase, 30 min on ice (4 °C); EDTA prevents enzyme activity; bound enzyme detected with FITC anti-His; effective (apparent) Kd from fits of normalised MFI.

As for “StcE, zinc metalloprotease (mucinase) from Escherichia coli serotype O157:H7 (from UniProt O82882) Y457A”, in test [1] (parent: est. 130 nM), the Kd worked out at 120 nM.
As for “double deletion StcE (ΔC and ΔINS) (from UniProt O82882) Y457A”, the Kd in test [1] (parent: est. 1300 nM) stood at 1300 nM.
As for “StcE, zinc metalloprotease (mucinase) from Escherichia coli serotype O157:H7 (from UniProt O82882) Y457W”, the Kd in test [1] (parent: est. 130 nM) worked out at 120 nM.
With “ddStcE^H367A (from UniProt O82882 36-898) (enzyme)”, the Kd in test [2] turned out to be 2000 nM.
Same read-out and setting: the value for “ddStcE^W366A, engineered StcE (from UniProt O82882 36-898) (enzyme)” was 2000 nM.
Regarding “StcE, zinc metalloprotease (mucinase) from Escherichia coli serotype O157:H7 (from UniProt O82882) W366F”, the Kd in test [1] (parent: est. 130 nM) worked out at 95 nM.
